Where two headings read alike, the source gives them in different places.

For assay [1], the target named is T1, SARS-CoV-2 spike 501Y.V2 (pseudovirus of Tables 8/23) (SARS-CoV-2). The assay is described as follows: cell-based or functional assay.
Assay [2] has as its target T1, SARS-CoV-2 spike 501Y.V2 (pseudovirus …). The experiment in a line: cell-based or functional assay. The source holds these as a separate data set.
In assay [3] the target is SARS-CoV-2 spike 'D614 or G614' (pseudovirus of Table 23) (SARS-CoV-2, UniProt P0DTC2 14-1273). The assay is described as follows: cell-based or functional assay.
In assay [4] the target is T2, SARS-CoV-2 RBD protein, wild type (recombinant) (SARS-CoV-2, UniProt P0DTC2 319-541). The assay is described as follows: BLI. A general note: Biolayer interferometry detects binding as a change in optical thickness at a sensor tip.
Assay [5] concerns the target T2, SARS-CoV-2 RBD protein, wild type …. The experiment in a line: BLI (Octet), IgG culture supernatant.

B1: No. 139 antibody (Full IgG) (antibody, V domains shown)
VH: QITLKESGPTLVKPTQTLTLTCSFSGFSLSTSGVGVGWIRQPPGKALEWLALIDWDDNKYHTTSLKTRLTISKDTSKNQVVLTMTNMDPVDTATYYCARIPGFLRYRNRYYYYGMDVWGQGTTVTVSS
VL: ELVLTQPPSVSAAPGQKVTISCSGSSSNIGNNYVSWYQQLPGTAPKLLIYDNNKRPSGIPDRFSGSKSGTSATLGITGLQTGDEADYYCGTWDSSLSAGVFGGGTELTVL
As to B1, the values for the IC50 in assay [1], in assay [2] and in assay [3] were 0.33 µg/mL, 0.33 µg/mL and 0.00035 µg/mL, respectively.

B2: No. 32 antibody (Full IgG; Table 3/4 numbering) (antibody, V domains shown)
VH: EVQLVQSGGGLIQPGGSLRLSCAASEFIVSSNYMTWVRQAPGKGLEWVSIIYPGGSTYYADSVKGRFTISRDNSKNTLYLRMNSLRAEDTAVYYCARDLPLTGTTLDYWGQGTLVTVSS
VL: not shown
Take B2: in assay [4], the Kd is 0.132 nM, the koff amounted to 0.000103 s⁻¹ and the kon came out at 779000 M⁻¹ s⁻¹. In assay [2], this molecule came in with an IC50 of 0.06 µg/mL. The IC50 in assay [3] came out at 0.00325 µg/mL. The Kd in assay [5] was 0.147 nM.

What is called IC50 is the concentration needed to halve the response being measured. Broadly, the Kd is a measure of binding affinity in units of concentration. Usually koff stands for the rate constant with which the complex falls apart. As usually defined, the kon is the rate constant with which the complex forms.
